# How the values were obtained:
# [1] = Hydrophilicity of bispecific antibodies (HIC, TSKgel Butyl-NPR); type: physicochemical; conditions: for Hydrophobicity value: (RT sample − RT hydrophilic control)/(RT hydrophobic control − RT hydrophilic control), Tagitanlimab = 0, Sacituzumab = 1; for Retention time: HIC, TSKgel Butyl-NPR column, 30°C, smaller = more hydrophilic
# Method: Column temperature: 30° C., detection wavelength: 280 nm, flow rate: 0.5 ml/min, mobile phase A: 1.5 mol/L (NH4)2SO4, mobile phase B: 25 mmol/L Na2HPO4, pH=7.0, 25% IPA. A suitable amount of the test sample was diluted with diluent (0.75 mol/L (NH4)2SO4) to make a solution of 1.0 mg/ml as the test sample solution. The control antibodies were Tagitanlimab as a hydrophilic control (disclosed in WO2017148424) and Sacituzumab as a hydrophobic control (disclosed in WO2019114666). (Both antibodies are produced by Kelun-Biotech.) Each of the control antibodies were diluted with the diluent to make a solution of 1.0 mg/ml as the system suitability solution. About […] of sample was injected and analyzed in gradient elution: 0-3 min, maintaining mobile phase A of 95% and mobile phase B of 5%; 3-40 min, mobile phase B from 5% to 100%; 40-45 min, maintaining mobile phase A of 95% and mobile phase B of 5%. The hydrophobicity value of the test sample was calculated according to the control sample with the formula: (retention time of the test sample−retention time of the hydrophilic control)/(retention time of the hydrophobic control−retention time of the hydrophilic control), and the smaller the retention time and hydrophobicity value, the better the hydrophilicity of the antibody.
# [2] = Hydrophilicity of ADCs (HIC, TSKgel Butyl-NPR); type: physicochemical; conditions: for Hydrophobicity value: (RT sample − RT hydrophilic control)/(RT hydrophobic control − RT hydrophilic control), Tagitanlimab = 0, Sacituzumab = 1; for Retention time: HIC, TSKgel Butyl-NPR column, 30°C, smaller = more hydrophilic
# Method: The column temperature was 30° C., the detection wavelength was 280 nm, and the flow rate was: 0.5 mL/min, mobile phase A: 1.5 mol/L (NH4)2SO4; mobile phase B: 25 mmol/L Na2HPO4, pH=7.0, 25% isopropanol alcohol (IPA). For analysis, a test sample of ADC was diluted to 1 mg/mL solution using the diluent 0.75 mol/L (NH4)2SO4 to provide a test solution. The hydrophilic control antibody was Tagitanlimab and the hydrophobic control antibody was Sacituzumab. Control antibodies were produced by Sichuan Kelun-Biotech Biopharmaceutical Co., Ltd. using the diluent to make a 1 mg/mL test solution as the system suitability solution. […] After testing, the hydrophobicity value of the test sample was calculated based on the control sample. The calculation formula was: (Retention time of test sample−Retention time of hydrophilic control)/(Retention time of hydrophobic control−Retention time of hydrophilic control).
Substance,Hydrophobicity value [1],Retention time [1] [min],Hydrophobicity value [2],Retention time [2] [min]
Sacituzumab,1.00,19.001,1.00,19.00
Tagitanlimab,0.00,11.009,0.00,11.01

# — patent publication US20250161474A1, “ANTIBODY-DRUG CONJUGATES TARGETING EGFR/C-MET AND PREPARATION METHODS AND USES THEREOF” (Sichuan Kelun-Biotech Biopharmaceutical Co., Ltd., priority 2023, published 2025)
